According to patent CN118459575A (CHENZHOU NO 1 PEOPLES HOSPITAL, dated 2024):

What was measured:
[1] = target: SARS-CoV-2 Gamma突变株 S蛋白 (假病毒) (SARS-CoV-2 Gamma); assay: cell-based or functional assay
[2] = target: SARS-CoV-2 Delta突变株 S蛋白 (假病毒) (SARS-CoV-2 Delta); assay: cell-based or functional assay
[3] = target: SARS-CoV S1蛋白 (Sino Biological, 货号 40150-V08B1) (SARS-CoV, UniProt P59594 14-667); assay: ELISA, S1 coated at 2 μg/mL, antibody titrated
[4] = target: T1, SARS-CoV-2 S1蛋白 (Sino Biological, 货号 40591-V08H) (SARS-CoV-2, UniProt P0DTC2 16-685); assay: ELISA, S1 coated at 2 μg/mL, antibody at 1 μg/mL
T1 construct: domain: S1

[5] = target: T2, SARS-CoV-2 S2蛋白 (Sino Biological, 货号 40590-V08B) (SARS-CoV-2, UniProt P0DTC2 686-1213); assay: ELISA, S2 coated at 2 μg/mL, antibody at 1 μg/mL
T2 construct: domain: S2

[6] = target: T3, SARS-CoV-2-Hu-1 S蛋白 (Sino Biological, 货号 40589-V08B1) (SARS-CoV-2, UniProt P0DTC2 14-1213); assay: ELISA screen, S protein coated at 2 μg/mL, antibody at 1 μg/mL
T3 construct: extracellular domain

B1: 广谱抗sarbecovirus和/或新冠突变株的抗体 SCM12-61 (antibody, V domains shown)
VH: QVQLVESGGGVVQPGRSLRLSCATSGFTFRSSAMHWVRQAPGKGLEWVAVIWFDGIKKYYTDSVKGRFTISRDNSKNTLYLQMNSLGAEDTAVYYCARDRAREFYPGPHCGDECYSSDAFDVWGQGTTVIVSS
VL: DIQMTQSPSSLSASVGDRVTITCRASQDINTYLNWYQQKSGRAPKFLIYAASSLQSGIPSRFSGSGSGTDFTLTIDSLQPEDFATYYCQQSHSIPYTFGQGTKLEIKR
With B1 the “假病毒中和 IC50” value [1] was 0.00813 µg/mL, the “假病毒中和 IC50” value [2] was 0.0248 µg/mL and the binding result [3] was “binds”. B1: binds [4]; no binding (tested: 1μg/mL) [5]; binds [6].
